How the values were obtained:
VpTS = biological target: T1, VpTS (Vibrio parahaemolyticus, UniProt Q87SA0); assay: spectrophotometric dihydrofolate formation at […] nm, dose-response fit; assay type: biochemical
T1 construct: gene thyA; full-length from codon-optimized synthetic gene in pJexpress414; E. coli BL21(DE3)-SI; 35,944 Da with tag; homodimer 70 kDa
T1 sequence (Q87SA0 1-283): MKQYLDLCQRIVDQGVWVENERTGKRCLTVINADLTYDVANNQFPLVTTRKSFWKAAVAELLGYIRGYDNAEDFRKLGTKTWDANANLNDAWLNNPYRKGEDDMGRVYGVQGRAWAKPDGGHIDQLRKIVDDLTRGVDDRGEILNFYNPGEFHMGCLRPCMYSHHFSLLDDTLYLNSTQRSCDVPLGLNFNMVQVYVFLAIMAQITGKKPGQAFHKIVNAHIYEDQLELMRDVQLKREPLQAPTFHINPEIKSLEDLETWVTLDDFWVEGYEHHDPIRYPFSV

purified protein [1] = substrate: Nc1nc2c(c(=O)[nH]1)N1CN(c3ccc(C(=O)N[C@@H](CCC(=O)O)C(=O)O)cc3)C[C@H]1CN2; assay: purified protein; assay type: biochemical, Vibrio parahaemolyticus; details: co-substrate dUMP, mTHF 0–300 µM, 50 mM Tris-HCl pH 7.5, 25 mM MgCl2, 5 mM DTT, 1 mM EDTA, 30 °C, varied: cofactor
purified protein [2] = substrate: O=c1ccn([C@H]2C[C@H](O)[C@@H](COP(=O)(O)O)O2)c(=O)[nH]1; assay: purified protein; assay type: biochemical, Vibrio parahaemolyticus; details: co-substrate mTHF, dUMP 0–150 µM, 50 mM Tris-HCl pH 7.5, 25 mM MgCl2, 5 mM DTT, 1 mM EDTA, 30 °C
[3] = biological target: the molecule itself; assay: SEC; Superdex 75 10/300, 1 mL/min, Tris HCl 20 mM pH 7.5, NaCl 100 mM; native molecular weight from a Kav vs. log MW plot of standards

Q: For `COc1cc(Cc2cnc(N)nc2N)cc(OC)c1OC` [trimethoprim], which IC50 (VpTS) is on record?
A: Its IC50 is 106 ± 11.4 µM.

B1: VpTS (Vibrio parahaemolyticus RIMD 2210633) (protein)
chain: MKQYLDLCQRIVDQGVWVENERTGKRCLTVINADLTYDVANNQFPLVTTRKSFWKAAVAELLGYIRGYDNAEDFRKLGTKTWDANANLNDAWLNNPYRKGEDDMGRVYGVQGRAWAKPDGGHIDQLRKIVDDLTRGVDDRGEILNFYNPGEFHMGCLRPCMYSHHFSLLDDTLYLNSTQRSCDVPLGLNFNMVQVYVFLAIMAQITGKKPGQAFHKIVNAHIYEDQLELMRDVQLKREPLQAPTFHINPEIKSLEDLETWVTLDDFWVEGYEHHDPIRYPFSV
notes: full-length from codon-optimized synthetic gene in pJexpress414; E. coli BL21(DE3)-SI; 35,944 Da with tag; homodimer 70 kDa
Q: Which results are given for B1?
A: Km (purified protein [1]): 96.3 ± 18 µM; kcat (purified protein [1]): 0.3 s⁻¹; Km (purified protein [2]): 27.3 ± 4.3 µM; kcat (purified protein [2]): 0.3 s⁻¹

B2: recombinant thymidylate synthase from Vibrio parahaemolyticus FIM-S1708+ (enzyme, UniProt Q87SA0 1-283, looked up)
chain: MKQYLDLCQRIVDQGVWVENERTGKRCLTVINADLTYDVANNQFPLVTTRKSFWKAAVAELLGYIRGYDNAEDFRKLGTKTWDANANLNDAWLNNPYRKGEDDMGRVYGVQGRAWAKPDGGHIDQLRKIVDDLTRGVDDRGEILNFYNPGEFHMGCLRPCMYSHHFSLLDDTLYLNSTQRSCDVPLGLNFNMVQVYVFLAIMAQITGKKPGQAFHKIVNAHIYEDQLELMRDVQLKREPLQAPTFHINPEIKSLEDLETWVTLDDFWVEGYEHHDPIRYPFSV
notes: thymidylate synthase (folate-dependent, thyA) of Vibrio parahaemolyticus strain FIM-S1708+, GenBank WP_100088861.1; codon-optimized synthetic gene in pJexpress414; theoretical mass with tag 35,944 Da; the 35 kDa band is compared with the mass that includes the 10-His tag, so the tag was probably still on the protein in the size exclusion run; also called VpTS; TS
Q: B2 was tested. Which “stoichiometry N” value [3] did it give?
A: Its value is 2.

Source: PMC6005164, “A novel thymidylate synthase from the Vibrionales, Alteromonadales, Aeromonadales, and Pasteurellales (VAAP) clade with altered nucleotide and folate binding sites” (PeerJ, 2018)
